Two molecules from patent US7897569B2, “Use of HMGB fragments as anti-inflammatory agents” (The Feinstein Institute for Medical Research, priority 2001, dated 2011) can be followed below.

Marks after values point to notes of the source that are not given here. Bounds are passed on as bounds.

In data set [1] the test system is D-galactosamine-sensitized Balb/c mice. The data set is described as follows: Toxicity in D-galactosamine-sensitized Balb/c mice (survival). Format: in vivo. Here is the method:
The D-galactosamine-sensitized model has been described previously (Galanos et al., Proc Natl. Acad. Sci. USA 76: 5939-5943, 1979; and Lehmann et al., J. Exp. Med. 165: 657-663, 1997). Mice were injected intraperitoneally with 20 mg D-galactosamine-HCL (Sigma)/mouse (in 200 μl PBS) and 0.1 or 1 mg of either HMGB1 B box or vector protein (in 200 μl PBS). Mortality was recorded daily for up to 72 hours after injection; survivors were followed for 2 weeks, and no later deaths from B box toxicity were observed.
To investigate whether the HMGB1 B box has cytokine activity in vivo, we administered HMGB1 B box protein to unanesthetized Balb/c mice sensitized with D-galactosamine (D-gal), a model that is widely used to study cytokine toxicity (Galanos et al., supra). Briefly, mice (20-25 gram, male, Harlan Sprague-Dawley, Indianapolis, Ind.) were intraperitoneally injected with D-gal (20 mg) (Sigma) and B box (0.1 mg/ml/mouse or 1 mg/ml/mouse) or GST tag (vector; 0.1 mg/ml/mouse or 1 mg/ml/mouse), as indicated in Table 1. Survival of the mice was monitored up to 7 days to ensure no late death occurred.

Data set [2] deals with RAW 264.7 cells. Description: IL-6 release from RAW 264.7 cells (ELISA). Format: cell-based, murine. The note with it: B box 0-10 μg/ml, 8 hours. Here is the method:
(§1) To further examine the effect of HMGB1 B box on cytokine production, varying amounts of HMGB1 B box were evaluated for the effects on TNF, IL-1 B, and IL-6 production in murine macrophage-like RAW 264.7 cells. Conditioned media were harvested and measured for TNF, IL-1β and IL-6 levels. TNF levels were measured as described herein, and IL-1β and IL-6 levels were measured using the mouse IL-1β and IL-6 enzyme-linked immunosorbent assay (ELISA) kits (R&D System Inc., Minneapolis, Minn.) and N>5 for all experiments.
For orientation: In an ELISA, binding on a coated surface is turned into a signal by an enzyme label.

The subject of the next data set is C3H/HeJ mice. Description: Lethality and histology in C3H/HeJ mice. Format: in vivo.
Data set [3] deals with RAW 264.7 cells. The data set is described as follows: IL-1β release from RAW 264.7 cells (ELISA). Format: cell-based, murine. The following applies: B box 1 μg/ml or 10 μg/ml, 8 hours. Here is the method:
as §1

The subject of data set [4] is Balb/c mice subjected to CLP. The data set is described as follows: Cecal ligation and puncture (CLP) sepsis survival. It is filed as in vivo. The protocol:
Cecal ligation and puncture (CLP) was performed as described previously (Fink and Heard, J. Surg. Res. 49:186-196, 1990; Wichmann et al., Crit. Care Med. 26:2078-2086, 1998; and Remick et al., Shock 4:89-95, 1995). Briefly, Balb/c mice were anesthetized with 75 mg/kg ketamine (Fort Dodge, Fort Dodge, Iowa) and 20 mg/kg of xylazine (Bohringer Ingelheim, St. Joseph, Mo.) intramuscularly. A midline incision was performed, and the cecum was isolated. A 6-0 prolene suture ligature was placed at a level 5.0 mm from the cecal tip away from the ileocecal valve.
The ligated cecal stump was then punctured once with a 22-gauge needle, without direct extrusion of stool. The cecum was then placed back into its normal intra-abdominal position. The abdomen was then closed with a running suture of 6-0 prolene in two layers, peritoneum and fascia separately to prevent leakage of fluid. All animals were resuscitated with a normal saline solution administered sub-cutaneously at 20 ml/kg of body weight. Each mouse received a subcutaneous injection of imipenem (0.5 mg/mouse) (Primaxin, Merck & Co., Inc., West Point, Pa.) 30 minutes after the surgery. Animals were then allowed to recuperate. Mortality was recorded for up to 1 week after the procedure; survivors were followed for 2 weeks to ensure no late mortalities had occurred.
To determine whether the HMGB1 A box can inhibit the lethality of HMGB1 during sepsis, mice were subjected to cecal perforation and treated by administration of A box beginning 24 hours after the onset of sepsis. CLP was performed on male Balb/c mice as described herein. Animals were randomly grouped, with 15-25 mice per group. The HMGB1 A box (60 or 600 μg/mouse each time) or vector (GST tag, 600 μg/mouse) alone was administered intraperitoneally twice daily for 3 days beginning 24 hours after CLP. Survival was monitored twice daily for up to 2 weeks to ensure no late death occurred. […]
Passive immunization of critically ill septic mice with anti-HMGB1 antibodies was also assessed. […] Survival was monitored for 2 weeks. […]

Another data set has as its system HMGB1. The data set is described as follows: A box antagonism of full length HMGB1 TNF release in RAW 264.7 macrophage cultures (ELISA). The note with it: co-addition with HMGB1, 16 hours, polymyxin B. Format: cell-based. Here is the method:
Antagonism of full length HMGB1 activity by HMGB1 A box or GST tag (vector control) was also determined by measuring TNF release from RAW 264.7 macrophage cultures stimulated by co-addition of A box with full length HMGB1. RAW 264.7 macrophage cells (ATCC) were seeded into 24-well tissue culture plates and used at 90% confluence. The cells were treated with HMGB1, and/or A boxes as indicated for 16 hours in Optimum I medium (Life Technologies, Grand Island, N.Y.) in the presence of polymyxin B (100 units/ml, Sigma, St. Louis, Mo.) and supernatants were collected for TNF measurement (mouse ELISA kit from R&D System Inc, Minneapolis, Minn.). TNF-inducing activity was expressed as a percentage of the activity achieved with HMG-1 alone. FIG. 4B is a histogram of the effect of HMGB1, alone, A box alone, Vector (control) alone, HMGB1 in combination with A box, and HMGB1 in combination with vector.

Where [5] appears, read: C3H/HeJ mice, 8 hours after administration.

B1: B box: Human HMGB1 mutant containing only the B box, SEQ ID NO:20 (protein)
chain: FKDPNAPKRLPSAFFLFCSEYRPKIKGEHPGLSIGDVAKKLGEMWNNTAADDKQPYEKKAAKLKEKYEKDIAAY
B1: the Alive/total in data set [1] (0.1 mg/mouse ip with D-gal 20 mg) was 6/6. In addition, the Alive/total in data set [1] (1 mg/mouse ip with D-gal 20 mg) is 2/8*. Further, the lethality result in data set [1] (D-galactosamine-sensitized mice) is recorded as “lethal to D-galactosamine-sensitized mice in a dose-dependent manner”. In addition, in data set [1] (instances in which death occurred), the time to death is not above 12 h. Also, the “IL-6 release, dose dependence” value with RAW 264.7 cells [2] is on record as “increased with increased amounts of B box”. Also, the lethality entry with C3H/HeJ mice (C3H/HeJ mice (do not respond to endotoxin)) was “lethal”. For the same molecule, in the data set with C3H/HeJ mice (setting [5]), the histology of heart result was “evidence of ischemia with loss of cross striation”; the histology of liver result is on record as “mild acute inflammatory responses”; the “histology of lung and kidney” value was “no abnormal morphologic changes”. Moreover, the IL-1β release entry in the data set on RAW 264.7 cells [3] was “increased release of IL-1β”.

B2: A box: Human HMGB1 mutant containing only the A box, SEQ ID NO:21 (A box SEQ ID NO:22) (protein)
chain: MGKGDPKKPTGKMSSYAFFVQTCREEHKKKHPDASVNFSEFSKKCSERWKTMSAKEKGKFEDMAKADKARYEREMKTYIPPKGET
For B2, the “clinical condition and outcome” value in data set [4] (60 μg A box, CLP) was “most died”. In data set [4] (600 μg/mouse A box, CLP), the clinical condition entry was “significantly more alert, active, and to resume feeding behavior”. This molecule also yielded a survival in data set [4] (ip twice daily for 3 days beginning 24 hours after CLP) of 68%. For the same molecule, the “effect on TNF stimulating activity of full length HMGB1” value with HMGB1 is recorded as “significantly attenuated”.
